Experiment: yeast display, Sf9 membrane polyspecificity reagent, FACS + sequencing; frameworks hold sequencing errors
Summary of the method: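 Galactose induction of a Saccharomyces cerevisiae BJ5465 synthetic nanobody display library ran 36–48 hours. The cells were then stained for 1 hour at 4 °C with 10% biotinylated, detergent-solubilized Sf9 membrane reagent, pulled down on streptavidin microbeads and FACS-sorted into low and high (top ~1%) gates on expression and reagent-binding fluorescence. Labels for polyreactivity follow the gate of origin.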
For “QVQLVESGGGLVQAGGSLRLSCAASGSIFHYNAMGWYRQAPGKERELVARISVNGGRTYYADSVKGRFTISRDNAKNTVYLQMNSLKPEDTAVYYCAVEGVWRSFFYGYDSWGQGTQVTVSS”, the “polyreactivity (PSR sort gate)” value was “low polyreactivity”. For “QVQLVESGGGLVQAGGSLRLSCAASGSIFHYYGMGWYRQAPGKERELVAAISRGGSTNYADSVKGRFTISRDNAKNTVYLQMNSLKPEDTAVYYCNARTYRKAYSGYNYWGQGTQVTVSS”, the “polyreactivity (PSR sort gate)” value was “high polyreactivity”. In the case of “QVQLVESGGGLVQAGGSLRLSCAASGSIFIAYGMGWYRQEPGKERELVAAITVSGGNTYYADSVKGRFTISRDNAKNTVYLQMKSLKPEDTAVYYCAADYWYYYGKGLYDYWGQGTQVTVSS”, the “polyreactivity (PSR sort gate)” value is reported as “low polyreactivity”. In the case of “QVQLVESGGGLVQAGGSLRLSCAASGSIFIAYGMGWYRQEPGKERELVAAITVSGGNTYYADSVKGRFTISRDNAKNTVYLQMNSLKPEDNAVYYCADVTYWQDGHRGNYWGQGTQVTVSS”, the “polyreactivity (PSR sort gate)” value is reported as “low polyreactivity”. For “QVQLVESGGGLVQAGGSLRLSCAASGSIFIFNAMGWYRQAPGKEREFVARIRRDSSTYYADSVKGRFTISRDNAKNTVYLLMNSLKPEDTAVYYCAAKRVYRRVELNSWGQGTQVTVSS”, the “polyreactivity (PSR sort gate)” value was “low polyreactivity”. With “QVQLVESGGGLVQAGGSLRLSCAASGSIFIGYAMGWYRQAPGKERELVAAIDSNGDTTYYADSVKGRFTISRDNAKNTVYLQMNSLKPEDTAVYYCAVDPYHDQLVSDHYYWGQGTQVTVSS” the “polyreactivity (PSR sort gate)” value was “low polyreactivity”. With “QVQLVESGGGLVQAGGSLRLSCAASGSIFIGYAMGWYRQAPGKERELVAAISNSGGRTYYADSVKGRFTISRDNAKNTVYLQMNSLKPEDTAVYYCAAEERYAYRYDYSGQGTQVTVSS” the “polyreactivity (PSR sort gate)” value was “high polyreactivity”. In the case of “QVQLVESGGGLVQAGGSLRLSCAASGSIFIINAMGWYRQAPGKERELVAAINNGVNTYYADSVKGRFTISRDNAKNTVYLQMNSLKPEDTAVYYCAADPYFYYYGYDYWGQGTQVTVSS”, the “polyreactivity (PSR sort gate)” value is reported as “low polyreactivity”. With “QVQLVESGGGLVQAGGSLRLSCAASGSIFIIYAMGWYRQAPGKERELVAAINTSGTSTYYADSVKGRFTISRDNAKNTVYLQMNSLKPEDTAVYYCAAAGRRSYKYYFWGQGTQVTVSS” the “polyreactivity (PSR sort gate)” value was “high polyreactivity”. For “QVQLVESGGGLVQAGGSLRLSCAASGSIFIIYAMGWYRQAPGKERELVASITGRGDSTYYADSVKGRFTISRDNAKNTVYLQMNSLKPEDTAVYYCNAGVYVYRVPGKGYYWGQGTQVTVSS”, the “polyreactivity (PSR sort gate)” value was “low polyreactivity”. With “QVQLVESGGGLVQAGGSLRLSCAASGSIFIQYAMGWYRQAPGKERELVAAINTSGGRTYYADSVKGRFTISRDNAKNTVYLLMNSLKPEDTAVYYCNADHFGWPWRVRILEDDYWGQGTQVTVSS” the “polyreactivity (PSR sort gate)” value was “low polyreactivity”. For “QVQLVESGGGLVQAGGSLRLSCAASGSIFIRYTLGWYRQAPGKERELVAVISRRGGSTYYADSVKGRFTISRDNAKNTVYLQMNSLNPEDTAVYYCNTTSSVRAPGSGVYYVPGFDYWGQGTQVTVSS”, the “polyreactivity (PSR sort gate)” value was “high polyreactivity”. With “QVQLVESGGGLVQAGGSLRLSCAASGSIFISYAMGWYRQAPGTERELVAAITWSGDSTYYADSVKGRFTISRDNAKNTVYLQMNSLKPEDTAVYYCAADWYFRNQRGYYWGQGTQVTVSS” the “polyreactivity (PSR sort gate)” value was “low polyreactivity”. In the case of “QVQLVESGGGLVQAGGSLRLSCAASGSIFITYAMGWYRQAPGKEMELVAAIRDSGDRTYYADSVKGRFTISRDNAKNTVYLQMNSLKPVDTAVYYCNARWEEPLKYDYWGQGTQVTVSS”, the “polyreactivity (PSR sort gate)” value is reported as “low polyreactivity”. In the case of “QVQLVESGGGLVQAGGSLRLSCAASGSIFITYAMGWYRQAPGKERELVAAIRDSGDRTYYADSVKGRFTISRDNAQNTVYLQMNSLKPEDTAVYHCNARWQEPLKYDYWGQGTQVTVSS”, the “polyreactivity (PSR sort gate)” value is reported as “low polyreactivity”. In the case of “QVQLVESGGGLVQAGGSLRLSCAASGSIFIVYARGWYRPAPGRERELVATITSGGSTNYADSVKGRFTISRDNAKKTVYLQMNSLKPEDTAVYYCAKDLYYGDYYYWGLGTQVTVSS”, the “polyreactivity (PSR sort gate)” value is reported as “low polyreactivity”. For “QVQLVESGGGLVQAGGSLRLSCAASGSIFIWYAMAWYRQAPWKERELVAAIRSGGSTYYADSVKGRFTISRDNAKNTVYLQMNSLKPEDTAVYYCAKVLTWRGYRYNYWGQGTQVTVSS”, the “polyreactivity (PSR sort gate)” value was “low polyreactivity”. With “QVQLVESGGGLVQAGGSLRLSCAASGSIFIYAMGWYRQAPGKERELVATISWSGTSTYSDSVKGRFTISRDNAKNTVYLQMNSLKPEDTAVYYCNKLKRTYYSSGYPHDYWGQGTQVTVSS” the “polyreactivity (PSR sort gate)” value was “low polyreactivity”. For “QVQLVESGGGLVQAGGSLRLSCAASGSIFIYNAMGWYRQAPGKERELVAAINWTGGSTYYADSVKGRFTISRDNAKNTVYLQMNSLKPEDTAVYYCNALRYGSTRGYDYWGQGTQVTVSS”, the “polyreactivity (PSR sort gate)” value was “high polyreactivity”. In the case of “QVQLVESGGGLVQAGGSLRLSCAASGSIFIYNAMGWYRQAPGKERELVAAITWSGGRTYYADSVKGRFTISRDNAKNSVYLQMNSLKPEDTAVYYCNAVWTDAYYSYGYDYWGQGTQVTVSS”, the “polyreactivity (PSR sort gate)” value is reported as “low polyreactivity”. In the case of “QVQLVESGGGLVQAGGSLRLSCAASGSIFIYYAMGGYRQEPGKERELVAAINTGGTTYYADSVKGRFTISRYNAKNTVYLQMNSLNPEDTAVYYCAKYIAYYGYVPSPWDHPGDDYWGQGTQVTVSS”, the “polyreactivity (PSR sort gate)” value is reported as “low polyreactivity”. With “QVQLVESGGGLVQAGGSLRLSCAASGSIFIYYAMGWYRQAPGKEREFVAAISTSTADTYYADSVKGRFTISRDNAKNTVYLQMNSLKPEDTAVYYCAAECRPKWYYWAEGYYWGQGTQVTVSS” the “polyreactivity (PSR sort gate)” value was “high polyreactivity”. For “QVQLVESGGGLVQAGGSLRLSCAASGSIFIYYAMGWYRQAPGKERELVADITFSAGSNTYYADSVKGRFTISRDNAKNTVYLQMNSLKPEDTAVYYCNADRGFIGSITEYDYWGQGTQVTVSS”, the “polyreactivity (PSR sort gate)” value was “low polyreactivity”. For “QVQLVESGGGLVQAGGSLRLSCAASGSIFKAHTMGWYRQAPGKERELVAAISGSGGRTRYADSVKGRFTISRDNAKITVYLQMNSLKPDVTAVYYCAASDRGGYYYWGQGTQVTVSS”, the “polyreactivity (PSR sort gate)” value was “high polyreactivity”. With “QVQLVESGGGLVQAGGSLRLSCAASGSIFKFNAMGWYRQAPGKERELDASITWTGTSTHYADSVKGRFTISRDNAKNTVFLQMNSLKPEDTAVYYCATYLYLWYEKGYTYDYWGQGTQVTVSS” the “polyreactivity (PSR sort gate)” value was “high polyreactivity”. With “QVQLVESGGGLVQAGGSLRLSCAASGSIFKFNTMGWYRQAPGNERELVAAITRVGSTYYADSVKGRFTISRDNAKNTVYLQMNSLKPEDTAVYYCAVRQRDKFAGGRNDYWGQGTQVTVSS” the “polyreactivity (PSR sort gate)” value was “high polyreactivity”. With “QVQLVESGGGLVQAGGSLRLSCAASGSIFKFYAMGWYRQAPGKERELVAAINYNDINTYYADSVKGRFTISRDNAKNTVYLQMNRLKPEDTAVYYCNAELNVQYLYGYTGEYDYWGQGTQVTVSS” the “polyreactivity (PSR sort gate)” value was “low polyreactivity”. With “QVQLVESGGGLVQAGGSLRLSCAASGSIFKGYSMGWYRQAPGKERELVAAITIDGSTYYADSVKGRFTISRDNAKNTVYLQMNSLKPEDTAVYYCAAVYLWYGSWPLHFAAYDYWGQGTQVTVSS” the “polyreactivity (PSR sort gate)” value was “low polyreactivity”. In the case of “QVQLVESGGGLVQAGGSLRLSCAASGSIFKGYTMGWYRQAPGKEREFVASISRRGGSTYYADSVKGRFTISRDNAKNTVYLQMNSLKPDDTAVYYCAKDYGKAYDYWGQGTQVTVSS”, the “polyreactivity (PSR sort gate)” value is reported as “high polyreactivity”. For “QVQLVESGGGLVQAGGSLRLSCAASGSIFKINAMGWYRQAPGKERELVAAITRSGGSTYYADSVKGRFTISRDNAKNTVYLQMNSLKPEDTAVYYCNASTSRRTSLSSRFYYWGQGTQVTVSS”, the “polyreactivity (PSR sort gate)” value was “high polyreactivity”. In the case of “QVQLVESGGGLVQAGGSLRLSCAASGSIFKINAMGWYRQAPGKERELVATITWSTGTTYYADSVKGRFTISRDNAKNTVYLQMNSLKPEDTAVYYCATDGDSTKLDYWGQGTQVTVSS”, the “polyreactivity (PSR sort gate)” value is reported as “low polyreactivity”. For “QVQLVESGGGLVQAGGSLRLSCAASGSIFKIYAMGWDRQAPGKERELVASITGSGGSTYYADSVKGRFTISRDNAKNTVYLQMNSLKPEDPAVYYCAVEAWSVPPYDYWGQGTQVTVSS”, the “polyreactivity (PSR sort gate)” value was “low polyreactivity”. In the case of “QVQLVESGGGLVQAGGSLRLSCAASGSIFKLNAMGWYRQAPGKERELVAAISRGGRTYYADSVKGRFTISRDNAKNTVYLQMNSLKPEDTAVYYCAADASSQIWYYPRDDYWGQGTLVTVSS”, the “polyreactivity (PSR sort gate)” value is reported as “low polyreactivity”. For “QVQLVESGGGLVQAGGSLRLSCAASGSIFKNYAMGWYRQAPGKERELVAAITSGGRTYYADSVKGRFTISRDNAKNTVYLQMNSLKPEDTAVYYCAALGRYGYYYWGQGTQVTVSS”, the “polyreactivity (PSR sort gate)” value was “high polyreactivity”. For “QVQLVESGGGLVQAGGSLRLSCAASGSIFKNYAMGWYRQAPGKERELVATISSGDSTYYADSVKGRFTISRDNAKNTVYLQMNSLKPEDTAVYYCNTTEHNYVSSFEYGYWGQGTHVTVSS”, the “polyreactivity (PSR sort gate)” value was “low polyreactivity”. With “QVQLVESGGGLVQAGGSLRLSCAASGSIFKPYSMGWYRQAPGKERELVAAISTRRSSTYYADSVKGRFTFSRDNAKNTVYLQMNSLIQEDTAVYYCAKRRYLWGYEYDSWGQGTQVNVSS” the “polyreactivity (PSR sort gate)” value was “high polyreactivity”. In the case of “QVQLVESGGGLVQAGGSLRLSCAASGSIFKRNAMGWYRQAPGKERELVASISSGGSTHYADSVKGRFTISRDNAKNTVYFQMNSLKPEDTAVYYCAATSIRWSVGSFRRDYWGQGTQVTVSS”, the “polyreactivity (PSR sort gate)” value is reported as “low polyreactivity”. With “QVQLVESGGGLVQAGGSLRLSCAASGSIFKRNAMGWYRQAPGKERELVASISSGGSTHYADSVKGRFTNSRDNAKNTVYLQMNSLKPEDTAVYYCAATSIRWSVGSFRRDYWGQVTQVTVSS” the “polyreactivity (PSR sort gate)” value was “low polyreactivity”. With “QVQLVESGGGLVQAGGSLRLSCAASGSIFKSYAMGWYRQAPGKERELVAAISGSGGRTYYADSVKGRFTISRDNAKNTVYLQMNSLKPEDTAVYYCNALASIRTHTGYAYSPPYDYWGQGTQVTVSS” the “polyreactivity (PSR sort gate)” value was “high polyreactivity”. In the case of “QVQLVESGGGLVQAGGSLRLSCAASGSIFKSYAMGWYRQAPGKERELVAAITRSGGSTYYADSVKGRFTISRDNAKNTVYLQMNSLKPEDTAVYYCAKKAPYWSYYYWGQGTQVTVSS”, the “polyreactivity (PSR sort gate)” value is reported as “high polyreactivity”. For “QVQLVESGGGLVQAGGSLRLSCAASGSIFKTNAMGWYRQAPGKERELVAAIYRSDGTDYADSVKGRFTISRDNAKNTVYLQMNSLKPEDTAVYYCNADKWSVVGYVLGFYRDDYWGQGSQVTVSS”, the “polyreactivity (PSR sort gate)” value was “low polyreactivity”. With “QVQLVESGGGLVQAGGSLRLSCAASGSIFKTNAMGWYRQAPGKERELVAGISNGGSTNYADSVKGRFTISRDNAKNTVYLQMNSLKPEDTAVYYCAAPYTSQTIPDYVRYFIEYDYWGQGTQVTVSS” the “polyreactivity (PSR sort gate)” value was “low polyreactivity”. In the case of “QVQLVESGGGLVQAGGSLRLSCAASGSIFKVNVMGWSRQAPGKERELVAAISRSGGNTYYADSVKGRFTISRDNAKNTVYLQMIILKPEDTGVYYCANDRRYYKAYDYWGQGTRVTVSS”, the “polyreactivity (PSR sort gate)” value is reported as “low polyreactivity”.

— the nanobody polyreactivity screen of Harvey et al. (2022)
